Among the data in publication PMC11850249, “Typical and atypical metabolic characteristics of three iridaceae isoflavone components: in vitro and in silico studies” (Frontiers in Pharmacology, 2025) are K0.5, kcat and kcat/Km values, retold here.

Holding throughout (assay type): in vitro ADME, human
Substrate in series [1]: COc1cc(-c2coc3cc(O)c(OC)c(O)c3c2=O)cc(O)c1OC
Nature of the series: Enzyme kinetics with recombinant CYP2C19. Conditions: other: recombinant CYP2C19, mean ± SE, n = 3; 30.0 °C. On the procedure:
(§1) A series of concentrations (1–300 μM) of tectorigenin, irigenin, or irisflorentin were added to HLMs or recombinant enzymes. Nonlinear regression was performed on the substrate concentration and generation rate of metabolites to investigate the enzymatic kinetic characteristics of these components in the metabolic system. All experiments were carried out in triplicate.
(§2) A Waters AQUITY UPLC system (Waters, Milford, MA, United States) equipped with a Dikma ODS C18 column (150 × 4.6 mm, 5 μm) was used for separation at 30°C. The binary mobile phase consisted of A (an aqueous solution containing 0.1% acetic acid and 2 mM ammonium acetate) and B (acetonitrile) at a flow rate of 1 mL/min. The elution settings were as follows: 0 → 5 min: 10% B → 20% B; 5 min → 20 min: 20% B → 50% B; 20 min → 21 min: 50% B → 60% B; 21 min → 25 min: 60% B → 90% B; 25 min → 25.1 min 90%–10% B; 25.1 min → 30 min 10% B. Flow rate: 1 mL/min 260 nm was used as the detection wavelength. Calibration standard curves were generated using a reaction mixture containing tectorigenin, irigenin, or irisflorentin at a concentration range of 0.03–10 µM. The concentrations of the metabolites were calculated using a standard curve of the substrates.
(§3) GraphPad Prism software 5.0 was used to perform non-linear fitting between the metabolite generation rate (V) and substrate concentration [S]. The appropriateness of the enzyme kinetic model was determined using R ^2 and the Eadie-Hofstee fit. The maximum metabolic rate (Vmax) and Michaelis constant (Km) were obtained for kinetic processes that conformed to the Michaelis–Menten model (Equation 1). For kinetic processes that conform to the sigmoidal kinetics model (Equation 2), Vmax, Hill coefficient (n), and S50, concentrations at 50% Vmax were obtained. Intrinsic clearance (Clint) was calculated according to Equation 3 (for the Michaelis–Menten model) and Equation 4 (for the sigmoidal kinetics model). All data are expressed as mean ± Standard Error (SE). One - way analysis of variance was used to compare the differences between different groups. […]

Substrate in series [2]: COc1c(O)cc2occ(-c3ccc(O)cc3)c(=O)c2c1O
Nature of the series: Enzyme kinetics with recombinant CYP2E1. Conditions: other: recombinant CYP2E1, mean ± SE, n = 3; 30.0 °C. As to the method: as §1
A Waters AQUITY UPLC system (Waters, Milford, MA, United States) equipped with a Dikma ODS C18 column (150 × 4.6 mm, 5 μm) was used for separation at 30°C. The binary mobile phase consisted of A (an aqueous solution containing 0.1% acetic acid and 2 mM ammonium acetate) and B (acetonitrile) at a flow rate of 1 mL/min. […] The concentrations of the metabolites were calculated using a standard curve of the substrates.
GraphPad Prism software 5.0 was used to perform non-linear fitting between the metabolite generation rate (V) and substrate concentration [S]. The appropriateness of the enzyme kinetic model was determined using R ^2 and the Eadie-Hofstee fit. […] Intrinsic clearance (Clint) was calculated according to Equation 3 (for the Michaelis–Menten model) and Equation 4 (for the sigmoidal kinetics model). All data are expressed as mean ± Standard Error (SE). […]

Substrate in series [3]: COc1cc(-c2coc3cc4c(c(OC)c3c2=O)OCO4)cc(OC)c1OC
Nature of the series: Enzyme kinetics with recombinant CYP1A2. As to conditions: other: recombinant CYP1A2, sigmoidal kinetics (S50), mean ± SE, n = 3; 30.0 °C. On the procedure:
as §1, §2, §3

B1: CYP2C19 (Homo sapiens) (protein)
chain: MDPFVVLVLCLSCLLLLSIWRQSSGRGKLPPGPTPLPVIGNILQIDIKDVSKSLTNLSKIYGPVFTLYFGLERMVVLHGYEVVKEALIDLGEEFSGRGHFPLAERANRGFGIVFSNGKRWKEIRRFSLMTLRNFGMGKRSIEDRVQEEARCLVEELRKTKASPCDPTFILGCAPCNVICSIIFQKRFDYKDQQFLNLMEKLNENIRIVSTPWIQICNNFPTIIDYFPGTHNKLLKNLAFMESDILEKVKEHQESMDINNPRDFIDCFLIKMEKEKQNQQSEFTIENLVITAADLLGAGTETTSTTLRYALLLLLKHPEVTAKVQEEIERVIGRNRSPCMQDRGHMPYTDAVVHEVQRYIDLIPTSLPHAVTCDVKFRNYLIPKGTTILTSLTSVLHDNKEFPNPEMFDPRHFLDEGGNFKKSNYFMPFSAGKRICVGEGLARMELFLFLTFILQNFNLKSLIDPKDLDTTPVVNGFASVPPFYQLCFIPV
notes: purchased CYPEX (Dundee, United Kingdom)
Regarding B1, in series [1], the K0.5 turned out to be 31.7 ± 2.4 µM; the kcat (in general, the number of substrate molecules converted per active site and unit of time at saturation) came out at 0.255 ± 0.005 s⁻¹; the kcat/Km – broadly, the second-order rate constant that governs catalysis at low substrate concentration – worked out at 8330 M⁻¹ s⁻¹.

B2: CYP2E1 (Homo sapiens) (protein)
chain: MSALGVTVALLVWAAFLLLVSMWRQVHSSWNLPPGPFPLPIIGNLFQLELKNIPKSFTRLAQRFGPVFTLYVGSQRMVVMHGYKAVKEALLDYKDEFSGRGDLPAFHAHRDRGIIFNNGPTWKDIRRFSLTTLRNYGMGKQGNESRIQREAHFLLEALRKTQGQPFDPTFLIGCAPCNVIADILFRKHFDYNDEKFLRLMYLFNENFHLLSTPWLQLYNNFPSFLHYLPGSHRKVIKNVAEVKEYVSERVKEHHQSLDPNCPRDLTDCLLVEMEKEKHSAERLYTMDGITVTVADLFFAGTETTSTTLRYGLLILMKYPEIEEKLHEEIDRVIGPSRIPAIKDRQEMPYMDAVVHEIQRFITLVPSNLPHEATRDTIFRGYLIPKGTVVVPTLDSVLYDNQEFPDPEKFKPEHFLNENGKFKYSDYFKPFSTGKRVCAGEGLARMELFLLLCAILQHFNLKPLVDPKDIDLSPIHIGFGCIPPRYKLCVIPRS
notes: as for B1
Take B2: in series [2], the K0.5 was found to be 130.4 ± 18.8 µM and the kcat was 0.427 ± 0.0267 s⁻¹.

B3: CYP1A2 (Homo sapiens) (protein)
chain: MALSQSVPFSATELLLASAIFCLVFWVLKGLRPRVPKGLKSPPEPWGWPLLGHVLTLGKNPHLALSRMSQRYGDVLQIRIGSTPVLVLSRLDTIRQALVRQGDDFKGRPDLYTSTLITDGQSLTFSTDSGPVWAARRRLAQNALNTFSIASDPASSSSCYLEEHVSKEAKALISRLQELMAGPGHFDPYNQVVVSVANVIGAMCFGQHFPESSDEMLSLVKNTHEFVETASSGNPLDFFPILRYLPNPALQRFKAFNQRFLWFLQKTVQEHYQDFDKNSVRDITGALFKHSKKGPRASGNLIPQEKIVNLVNDIFGAGFDTVTTAISWSLMYLVTKPEIQRKIQKELDTVIGRERRPRLSDRPQLPYLEAFILETFRHSSFLPFTIPHSTTRDTTLNGFYIPKKCCVFVNQWQVNHDPELWEDPSEFRPERFLTADGTAINKPLSEKMMLFGMGKRRCIGEVLAKWEIFLFLAILLQQLEFSVPPGVKVDLTPIYGLTMKHARCEHVQARLRFSIN
notes: as for B1
Turning to B3, in series [3], the K0.5 was 38.5 ± 2.5 µM, the kcat is 1.77 ± 0.0467 s⁻¹ and the kcat/Km was determined as 25000 M⁻¹ s⁻¹.
